Where no end group is shown, it is not given here. [ ]: non-standard residue; d: D form.

What is called Kd is the equilibrium constant for the complex coming apart. High values mean weaker binding, low ones tighter binding. The term IC50 denotes the midpoint of a concentration-inhibition curve.

B1: recombinant CHIP (C-terminus of Hsc70-interacting protein) TPR domain (domain or fragment)
chain: GASPSAQELKEQGNRLFVGRKYPEAAACYGRAITRNPLVAVYYTNRALCYLKMQQHEQALADCRRALELDGQSVKAHFFLGQCQLEMESYDEAIANLQRAYSLAKEQRLNFGDDIPSALRIAKKKRWNSIEERR
modifications: biotinylated in the TR-FRET assay

The target in assay [1] is FAM-Hsp70 peptide (peptide model of the heat shock protein 70 C-terminus), L-form (UniProt P0DMV8, 5(6)-carboxyfluorescein (FAM)). The assay is described as follows: FRET.
FAM-Hsp70 peptide (peptide model of the heat shock protein 70 C-terminus), L-form, sequence (P0DMV8 whole entry, looked up, tested part not stated): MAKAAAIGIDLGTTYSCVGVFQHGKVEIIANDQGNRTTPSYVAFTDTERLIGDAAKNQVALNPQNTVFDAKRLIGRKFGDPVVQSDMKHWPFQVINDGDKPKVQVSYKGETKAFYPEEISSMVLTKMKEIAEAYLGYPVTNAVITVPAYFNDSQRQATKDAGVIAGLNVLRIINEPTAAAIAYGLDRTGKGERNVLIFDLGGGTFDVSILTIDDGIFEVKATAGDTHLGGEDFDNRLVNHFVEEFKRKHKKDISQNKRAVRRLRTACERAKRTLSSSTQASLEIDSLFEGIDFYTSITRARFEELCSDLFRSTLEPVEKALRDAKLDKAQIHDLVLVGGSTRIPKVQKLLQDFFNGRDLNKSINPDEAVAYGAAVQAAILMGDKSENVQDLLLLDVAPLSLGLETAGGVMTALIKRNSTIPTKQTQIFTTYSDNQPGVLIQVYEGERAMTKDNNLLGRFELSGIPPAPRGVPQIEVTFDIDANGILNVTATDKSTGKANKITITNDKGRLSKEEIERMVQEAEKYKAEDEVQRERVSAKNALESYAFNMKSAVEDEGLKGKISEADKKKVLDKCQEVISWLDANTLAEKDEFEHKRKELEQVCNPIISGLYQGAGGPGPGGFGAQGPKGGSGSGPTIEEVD
Assay [2] deals with FAM-Hsp70 peptide (peptide model of the heat shock protein 70 C-terminus), D-form (UniProt P0DMV8, all residues D-amino acids; 5(6)-carboxyfluorescein (FAM)). The assay is described as follows: FRET.
FAM-Hsp70 peptide (peptide model of the heat shock protein 70 C-terminus), D-form, sequence (P0DMV8 whole entry, looked up, tested part not stated): as above
The target of assay [3] is p53-derived model peptide, FAM-labelled (L-form) (UniProt P04637, 5(6)-carboxyfluorescein (FAM)). Description: FRET.
p53-derived model peptide, FAM-labelled (L-form), sequence (P04637 whole entry, looked up, tested part not stated): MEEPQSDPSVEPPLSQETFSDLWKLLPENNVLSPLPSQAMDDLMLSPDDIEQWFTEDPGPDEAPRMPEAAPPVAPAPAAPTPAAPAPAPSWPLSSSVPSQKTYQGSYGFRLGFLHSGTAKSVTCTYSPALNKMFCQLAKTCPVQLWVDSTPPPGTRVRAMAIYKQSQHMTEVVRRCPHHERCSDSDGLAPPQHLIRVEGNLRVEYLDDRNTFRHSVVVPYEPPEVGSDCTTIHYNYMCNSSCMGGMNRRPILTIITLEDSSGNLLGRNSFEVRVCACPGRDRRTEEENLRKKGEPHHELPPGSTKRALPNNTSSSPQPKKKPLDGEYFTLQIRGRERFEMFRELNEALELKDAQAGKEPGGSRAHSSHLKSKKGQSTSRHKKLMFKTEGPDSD
Assay [4] concerns the target p53-derived model peptide, FAM-labelled (D-form) (UniProt P04637, all residues D-amino acids; 5(6)-carboxyfluorescein (FAM)). The assay is described as follows: FRET.
The target in assay [5] is B1. Description: FP.

p53-derived model peptide, FAM-labelled (D-form), sequence (P04637 whole entry, looked up, tested part not stated): as above

The molecule B1 came in with a Kd in assay [1] of 4000 nM.

B2: synthetic L-CHIP (TPR domain) (domain or fragment)
chain: SPSAQELKEQGNRLFVGRKYPEAAACYGRAITRNPLVAVYYTNRALCYLKMQQHEQALADCRRALELDGQSVKAHFFLGQCQLEMESYDEAIANLQRAYSLAKEQRLNFGDDIPSALRIAKKKRWNSIEERR
modifications: biotin at the N-terminus through a PEG12 linker
On to B2, for which, in assay [1], the Kd is 3800 nM.

B3: synthetic D-CHIP (TPR domain) (domain or fragment)
chain: SPSAQELKEQGNRLFVGRKYPEAAACYGRAITRNPLVAVYYTNRALCYLKMQQHEQALADCRRALELDGQSVKAHFFLGQCQLEMESYDEAIANLQRAYSLAKEQRLNFGDDIPSALRIAKKKRWNSIEERR
modifications: all residues D-amino acids; biotin at the N-terminus through a PEG12 linker
On to B3, for which the affinity in assay [2], expressed as Kd, was 3500 nM.

B4: recombinant MDM2 (mouse double minute 2 homolog) (domain or fragment)
chain: SQIPASEQETLVRPKPLLLKLLKSVGAQKDTYTMKEVLFYLGQYIMTKRLYDEKQQHIVYCSNDLLGDLFGVPSFSVKEHRKIYTMIYRNLVVVN
modifications: biotinylated in the TR-FRET assay
On to B4, for which the Kd in assay [3] worked out at 10 nM.

B5: synthetic D-MDM2 (domain or fragment)
chain: SQIPASEQETLVRPKPLLLKLLKSVGAQKDTYTMKEVLFYLGQYIMTKRLYDEKQQHIVYCSNDLLGDLFGVPSFSVKEHRKIYTMIYRNLVVVN
modifications: all residues D-amino acids; biotin at the N-terminus through a PEG12 linker
For B5, in assay [4], the affinity, expressed as Kd, was 13 nM.

B6: D-H202 (peptide)
chain: [dP][dW][dW][dE][dC][dL][dS][dQ][dA][dD][dD][dC][dD][dF][dR]
modifications: staple (positions not given here)
For B6, the IC50 in assay [5] turned out to be 1230 nM.

For the origin of these results see PMC10901774 (2024).
